Data on five molecules can be found in patent publication US20260015399A1 (Boehringer Ingelheim, published 2026).

Test [1] addresses T1, human NPY2 receptor (human, UniProt P49146 1-381).
T1 sequence (looked up): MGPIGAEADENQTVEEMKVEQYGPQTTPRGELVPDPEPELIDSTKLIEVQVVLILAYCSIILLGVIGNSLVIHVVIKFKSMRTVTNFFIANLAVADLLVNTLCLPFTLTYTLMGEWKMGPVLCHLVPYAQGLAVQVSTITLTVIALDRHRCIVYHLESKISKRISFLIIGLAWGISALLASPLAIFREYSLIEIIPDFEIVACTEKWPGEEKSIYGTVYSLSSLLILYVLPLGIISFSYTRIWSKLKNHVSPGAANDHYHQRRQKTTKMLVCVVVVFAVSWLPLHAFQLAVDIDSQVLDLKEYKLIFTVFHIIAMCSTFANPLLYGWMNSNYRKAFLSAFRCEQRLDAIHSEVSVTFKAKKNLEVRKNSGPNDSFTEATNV
Nature of the test: cell-based or functional assay.

In another test the target is T2, human NPY5 receptor (human, UniProt Q15761 1-445).
T2 sequence (looked up): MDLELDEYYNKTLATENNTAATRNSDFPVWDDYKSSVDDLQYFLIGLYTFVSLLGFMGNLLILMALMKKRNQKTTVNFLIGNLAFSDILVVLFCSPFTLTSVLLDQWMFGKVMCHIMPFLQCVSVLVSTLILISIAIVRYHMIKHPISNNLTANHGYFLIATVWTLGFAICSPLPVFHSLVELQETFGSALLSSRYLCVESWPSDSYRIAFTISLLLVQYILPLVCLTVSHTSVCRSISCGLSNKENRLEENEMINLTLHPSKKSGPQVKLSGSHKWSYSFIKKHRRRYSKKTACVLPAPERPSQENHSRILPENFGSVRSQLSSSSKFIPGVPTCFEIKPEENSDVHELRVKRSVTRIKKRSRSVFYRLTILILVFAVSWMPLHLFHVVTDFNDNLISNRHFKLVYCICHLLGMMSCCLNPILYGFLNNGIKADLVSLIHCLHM
Nature of the test: cell-based or functional assay.

Test [2] concerns the target T1, human NPY2 receptor. Put plainly: RLB: displacement of 125I-PYY(1-36) from hNPY2R membranes.

*1 amine or outer side, *2 acyl side, *3 side chain or, on linkers, in order; H or OH if unused. Side-chain parts run from the residue outwards. The star is where a group is joined. C18 diacid = O=C(O)CCCCCCCCCCCCCCCCC(=O)*; γGlu = O=C(O)[C@H](CCC(=O)[*:2])N[*:1]; Isovaleryl = CC(C)CC(=O)*; Ahx = NCCCCCC(=O)O

B1: Compound 52 (peptide)
peptide: Isovaleryl-APEK([Ahx-γGlu-C18 diacid])PEEDASPEEIQRYYVELRHYYNWLTRQRY-NH2
SMILES: CC[C@H](C)[C@H](NC(=O)[C@H](CCC(=O)O)NC(=O)[C@H](CCC(=O)O)NC(=O)[C@@H]1CCCN1C(=O)[C@H](CO)NC(=O)[C@H](C)NC(=O)[C@H](CC(=O)O)NC(=O)[C@H](CCC(=O)O)NC(=O)[C@H](CCC(=O)O)NC(=O)[C@@H]1CCCN1C(=O)[C@H](CCCCNC(=O)CCCCCNC(=O)CC[C@H](NC(=O)CCCCCCCCCCCCCCCCC(=O)O)C(=O)O)NC(=O)[C@H](CCC(=O)O)NC(=O)[C@@H]1CCCN1C(=O)[C@H](C)NC(=O)CC(C)C)C(=O)N[C@@H](CCC(N)=O)C(=O)N[C@@H](CCCNC(=N)N)C(=O)N[C@@H](Cc1ccc(O)cc1)C(=O)N[C@@H](Cc1ccc(O)cc1)C(=O)N[C@H](C(=O)N[C@@H](CCC(=O)O)C(=O)N[C@@H](CC(C)C)C(=O)N[C@@H](CCCNC(=N)N)C(=O)N[C@@H](Cc1c[nH]cn1)C(=O)N[C@@H](Cc1ccc(O)cc1)C(=O)N[C@@H](Cc1ccc(O)cc1)C(=O)N[C@@H](CC(N)=O)C(=O)N[C@@H](Cc1c[nH]c2ccccc12)C(=O)N[C@@H](CC(C)C)C(=O)N[C@H](C(=O)N[C@@H](CCCNC(=N)N)C(=O)N[C@@H](CCC(N)=O)C(=O)N[C@@H](CCCNC(=N)N)C(=O)N[C@@H](Cc1ccc(O)cc1)C(N)=O)[C@@H](C)O)C(C)C
For B1, the results for the “EC50, HTRF cAMP Gi assay” value with human NPY2 receptor [1] and with human NPY5 receptor were 0.176 nM and > 5000 nM, respectively. The molecule further came in with an inhibition constant (Ki) in the test with human NPY2 receptor [2] of 2.39 nM.

B2: Compound 72 (peptide)
peptide: Isovaleryl-APEK([Ahx-γGlu-C18 diacid])PEADAEPEELQRYYVSLRHYYNWLTRQRY-NH2
SMILES: CC(C)CC(=O)N[C@@H](C)C(=O)N1CCC[C@H]1C(=O)N[C@@H](CCC(=O)O)C(=O)N[C@@H](CCCCNC(=O)CCCCCNC(=O)CC[C@H](NC(=O)CCCCCCCCCCCCCCCCC(=O)O)C(=O)O)C(=O)N1CCC[C@H]1C(=O)N[C@@H](CCC(=O)O)C(=O)N[C@@H](C)C(=O)N[C@@H](CC(=O)O)C(=O)N[C@@H](C)C(=O)N[C@@H](CCC(=O)O)C(=O)N1CCC[C@H]1C(=O)N[C@@H](CCC(=O)O)C(=O)N[C@@H](CCC(=O)O)C(=O)N[C@@H](CC(C)C)C(=O)N[C@@H](CCC(N)=O)C(=O)N[C@@H](CCCNC(=N)N)C(=O)N[C@@H](Cc1ccc(O)cc1)C(=O)N[C@@H](Cc1ccc(O)cc1)C(=O)N[C@H](C(=O)N[C@@H](CO)C(=O)N[C@@H](CC(C)C)C(=O)N[C@@H](CCCNC(=N)N)C(=O)N[C@@H](Cc1c[nH]cn1)C(=O)N[C@@H](Cc1ccc(O)cc1)C(=O)N[C@@H](Cc1ccc(O)cc1)C(=O)N[C@@H](CC(N)=O)C(=O)N[C@@H](Cc1c[nH]c2ccccc12)C(=O)N[C@@H](CC(C)C)C(=O)N[C@H](C(=O)N[C@@H](CCCNC(=N)N)C(=O)N[C@@H](CCC(N)=O)C(=O)N[C@@H](CCCNC(=N)N)C(=O)N[C@@H](Cc1ccc(O)cc1)C(N)=O)[C@@H](C)O)C(C)C
With B2, the “EC50, HTRF cAMP Gi assay” value with human NPY2 receptor [1] is 0.197 nM; in the test with human NPY5 receptor it was > 5000 nM. The same molecule registered an inhibitory constant (Ki) with human NPY2 receptor [2] of 2.79 nM.

B3: Compound 91 (peptide)
peptide: Isovaleryl-APEK([Ahx-γGlu-C18 diacid])PEEDAEPEELQRYYTSLRHYYHWLTRQRY-NH2
SMILES: CC(C)CC(=O)N[C@@H](C)C(=O)N1CCC[C@H]1C(=O)N[C@@H](CCC(=O)O)C(=O)N[C@@H](CCCCNC(=O)CCCCCNC(=O)CC[C@H](NC(=O)CCCCCCCCCCCCCCCCC(=O)O)C(=O)O)C(=O)N1CCC[C@H]1C(=O)N[C@@H](CCC(=O)O)C(=O)N[C@@H](CCC(=O)O)C(=O)N[C@@H](CC(=O)O)C(=O)N[C@@H](C)C(=O)N[C@@H](CCC(=O)O)C(=O)N1CCC[C@H]1C(=O)N[C@@H](CCC(=O)O)C(=O)N[C@@H](CCC(=O)O)C(=O)N[C@@H](CC(C)C)C(=O)N[C@@H](CCC(N)=O)C(=O)N[C@@H](CCCNC(=N)N)C(=O)N[C@@H](Cc1ccc(O)cc1)C(=O)N[C@@H](Cc1ccc(O)cc1)C(=O)N[C@H](C(=O)N[C@@H](CO)C(=O)N[C@@H](CC(C)C)C(=O)N[C@@H](CCCNC(=N)N)C(=O)N[C@@H](Cc1c[nH]cn1)C(=O)N[C@@H](Cc1ccc(O)cc1)C(=O)N[C@@H](Cc1ccc(O)cc1)C(=O)N[C@@H](Cc1c[nH]cn1)C(=O)N[C@@H](Cc1c[nH]c2ccccc12)C(=O)N[C@@H](CC(C)C)C(=O)N[C@H](C(=O)N[C@@H](CCCNC(=N)N)C(=O)N[C@@H](CCC(N)=O)C(=O)N[C@@H](CCCNC(=N)N)C(=O)N[C@@H](Cc1ccc(O)cc1)C(N)=O)[C@@H](C)O)[C@@H](C)O
As for B3, the entries for the “EC50, HTRF cAMP Gi assay” value in the test with human NPY2 receptor [1] and with human NPY5 receptor were 0.219 nM and 5000 nM, respectively. Further, the Ki with human NPY2 receptor [2] worked out at 4.64 nM.

B4: Compound 76 (peptide)
peptide: Isovaleryl-APEK([Ahx-γGlu-C18 diacid])PEEDASPEELQRYYISLRHYYNWLTRQRY-NH2
SMILES: CC[C@H](C)[C@H](NC(=O)[C@H](Cc1ccc(O)cc1)NC(=O)[C@H](Cc1ccc(O)cc1)NC(=O)[C@H](CCCNC(=N)N)NC(=O)[C@H](CCC(N)=O)NC(=O)[C@H](CC(C)C)NC(=O)[C@H](CCC(=O)O)NC(=O)[C@H](CCC(=O)O)NC(=O)[C@@H]1CCCN1C(=O)[C@H](CO)NC(=O)[C@H](C)NC(=O)[C@H](CC(=O)O)NC(=O)[C@H](CCC(=O)O)NC(=O)[C@H](CCC(=O)O)NC(=O)[C@@H]1CCCN1C(=O)[C@H](CCCCNC(=O)CCCCCNC(=O)CC[C@H](NC(=O)CCCCCCCCCCCCCCCCC(=O)O)C(=O)O)NC(=O)[C@H](CCC(=O)O)NC(=O)[C@@H]1CCCN1C(=O)[C@H](C)NC(=O)CC(C)C)C(=O)N[C@@H](CO)C(=O)N[C@@H](CC(C)C)C(=O)N[C@@H](CCCNC(=N)N)C(=O)N[C@@H](Cc1c[nH]cn1)C(=O)N[C@@H](Cc1ccc(O)cc1)C(=O)N[C@@H](Cc1ccc(O)cc1)C(=O)N[C@@H](CC(N)=O)C(=O)N[C@@H](Cc1c[nH]c2ccccc12)C(=O)N[C@@H](CC(C)C)C(=O)N[C@H](C(=O)N[C@@H](CCCNC(=N)N)C(=O)N[C@@H](CCC(N)=O)C(=O)N[C@@H](CCCNC(=N)N)C(=O)N[C@@H](Cc1ccc(O)cc1)C(N)=O)[C@@H](C)O
For B4, the “EC50, HTRF cAMP Gi assay” value with human NPY2 receptor [1] is 0.172 nM; with human NPY5 receptor it was > 5000 nM. The inhibition constant Ki in the test with human NPY2 receptor [2] was determined as 2.68 nM.

B5: Compound 79 (peptide)
peptide: Isovaleryl-APEK([Ahx-γGlu-C18 diacid])PEEDASPEELQRYYVSLRHYYNWLTRQRY-NH2
SMILES: CC(C)CC(=O)N[C@@H](C)C(=O)N1CCC[C@H]1C(=O)N[C@@H](CCC(=O)O)C(=O)N[C@@H](CCCCNC(=O)CCCCCNC(=O)CC[C@H](NC(=O)CCCCCCCCCCCCCCCCC(=O)O)C(=O)O)C(=O)N1CCC[C@H]1C(=O)N[C@@H](CCC(=O)O)C(=O)N[C@@H](CCC(=O)O)C(=O)N[C@@H](CC(=O)O)C(=O)N[C@@H](C)C(=O)N[C@@H](CO)C(=O)N1CCC[C@H]1C(=O)N[C@@H](CCC(=O)O)C(=O)N[C@@H](CCC(=O)O)C(=O)N[C@@H](CC(C)C)C(=O)N[C@@H](CCC(N)=O)C(=O)N[C@@H](CCCNC(=N)N)C(=O)N[C@@H](Cc1ccc(O)cc1)C(=O)N[C@@H](Cc1ccc(O)cc1)C(=O)N[C@H](C(=O)N[C@@H](CO)C(=O)N[C@@H](CC(C)C)C(=O)N[C@@H](CCCNC(=N)N)C(=O)N[C@@H](Cc1c[nH]cn1)C(=O)N[C@@H](Cc1ccc(O)cc1)C(=O)N[C@@H](Cc1ccc(O)cc1)C(=O)N[C@@H](CC(N)=O)C(=O)N[C@@H](Cc1c[nH]c2ccccc12)C(=O)N[C@@H](CC(C)C)C(=O)N[C@H](C(=O)N[C@@H](CCCNC(=N)N)C(=O)N[C@@H](CCC(N)=O)C(=O)N[C@@H](CCCNC(=N)N)C(=O)N[C@@H](Cc1ccc(O)cc1)C(N)=O)[C@@H](C)O)C(C)C
Regarding B5, the entries for the “EC50, HTRF cAMP Gi assay” value with human NPY2 receptor [1] and with human NPY5 receptor were 0.076 nM and > 5000 nM, respectively. Moreover, the inhibition constant Ki with human NPY2 receptor [2] was 1.54 nM.

The term Ki denotes the equilibrium dissociation constant of an inhibitor or competing ligand from its target.
